From publication doi:10.1101/2024.01.23.574818

Molecular target: RmlT, wall teichoic acid rhamnosyltransferase of Listeria monocytogenes EGDe (Listeria monocytogenes EGDe)
Assay: SEC

RmlT, wall teichoic acid rhamnosyltransferase of Listeria monocytogenes EGDe (enzyme)
stoichiometry N: 2
